Experimental data taken from publication PMC11674933, “Discovery of Carbonic Anhydrase 9 as a Novel CLEC2 Ligand in a Cellular Interactome Screen” (Cells, 2024).

Target: CA9^38−414-His-avi (human, UniProt Q16790, biotin (biotinylated))
Assay: AlphaScreen or HTRF; validation of the AlphaLISA set-up (Figure S6) with tagged G250 against a control library protein; CA9 on the beads at 15 nM or 60 nM
Details: one partner purified

B1: 2E3 tagged Girentuximab (G250) (antibody, V domains shown)
VH: DVKLVESGGGLVKLGGSLKLSCAASGFTFSNYYMSWVRQTPEKRLELVAAINSDGGITYYLDTVKGRFTISRDNAKNTLYLQMSSLKSEDTALFYCARHRSGYFSMDYWGQGTSVTVSS
VL: DIVMTQSQRFMSTTVGDRVSITCKASQNVVSAVAWYQQKPGQSPKLLIYSASNRYTGVPDRFTGSGSGTDFTLTISNMQSEDLADFFCQQYSNYPWTFGGGTKLEIK
notes: tagged versions of Girentuximab (G250); also called anti-CA9; G250 constructs
binding result: binds
